B1: DNA replication regulator protein HobA (Helicobacter pylori), O25828 (parent)
chain: MKNFYDWIKEFVRDQGEFIAQQSGWLELERSSYAKLIAQTISHVLNGGSLLVSADSSRHWFLNYILSNLNPKDLKERPLLSVIDFNASSFYPKNDANLSLATIEMTYQNPMFWHVGKIENEGLKTILLSKIPSFLWLFEELKEDCLLLKEHDSLLDYKLLQLFKLFENALFSVLYNKVTL
partner: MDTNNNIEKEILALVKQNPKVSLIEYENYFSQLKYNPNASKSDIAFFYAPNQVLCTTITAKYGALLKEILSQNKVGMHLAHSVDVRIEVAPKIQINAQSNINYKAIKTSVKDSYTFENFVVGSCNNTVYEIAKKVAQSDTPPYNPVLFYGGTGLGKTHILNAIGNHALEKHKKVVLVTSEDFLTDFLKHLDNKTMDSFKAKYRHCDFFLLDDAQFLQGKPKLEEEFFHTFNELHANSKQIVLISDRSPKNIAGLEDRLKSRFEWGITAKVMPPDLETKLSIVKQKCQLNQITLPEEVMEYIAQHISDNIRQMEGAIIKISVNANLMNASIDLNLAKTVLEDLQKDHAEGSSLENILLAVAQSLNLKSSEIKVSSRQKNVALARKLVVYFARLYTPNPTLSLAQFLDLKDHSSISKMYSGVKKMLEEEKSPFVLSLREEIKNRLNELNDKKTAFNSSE

Variants of: B1
Conditions: with dnaa_helpy dnaA

E76A;R77A;P78A was tested. Which “effect of a mutation on the interaction” value did it give?
The value was “disrupting interaction”.

With L80R as the variant, how does the “effect of a mutation on the interaction” value read?
Its value is “disrupting interaction”.

How did the “effect of a mutation on the interaction” value turn out when Y175E was run?
The value was “disrupting interaction”.

Variants of: B1
Conditions: with dnaa_helpy dnaA
Remark: another data set of the same source

I41T was tested. Which “effect of a mutation on the interaction” value did it give?
Its value is “disrupting interaction”.

Which “effect of a mutation on the interaction” value does the source give for H43R here?
The value was “disrupting interaction”.

With V44A as the variant, how does the “effect of a mutation on the interaction” value read?
Its value is “decreasing interaction”.

With L45P as the variant, how does the “effect of a mutation on the interaction” value read?
Its value is “disrupting interaction”.

With L51F as the variant, how does the “effect of a mutation on the interaction” value read?
Its value is “decreasing interaction”.

D55G was tested. Which “effect of a mutation on the interaction” value did it give?
Its value is “disrupting interaction”.

With F61C as the variant, how does the “effect of a mutation on the interaction” value read?
The value was “disrupting interaction”.

S67P was tested. Which “effect of a mutation on the interaction” value did it give?
Its value is “disrupting interaction”.

Which “effect of a mutation on the interaction” value does the source give for R77C here?
The value was “decreasing interaction”.

With V82A as the variant, how does the “effect of a mutation on the interaction” value read?
The value was “decreasing interaction”.

For I83M, which “effect of a mutation on the interaction” value is on record?
Its value is “decreasing interaction”.

Which “effect of a mutation on the interaction” value does the source give for S99P here?
The value was “decreasing interaction”.

Y107H was tested. Which “effect of a mutation on the interaction” value did it give?
The value was “decreasing interaction”.

How did the “effect of a mutation on the interaction” value turn out when M111V was run?
Its value is “decreasing interaction”.

For F112S, which “effect of a mutation on the interaction” value is on record?
The value was “disrupting interaction”.

V115D was tested. Which “effect of a mutation on the interaction” value did it give?
The value was “disrupting interaction”.

Which “effect of a mutation on the interaction” value does the source give for I118T here?
The value was “disrupting interaction”.

With E119G as the variant, how does the “effect of a mutation on the interaction” value read?
Its value is “disrupting interaction”.

L128P was tested. Which “effect of a mutation on the interaction” value did it give?
Its value is “disrupting interaction”.

How did the “effect of a mutation on the interaction” value turn out when F138L was run?
Its value is “disrupting interaction strength”.

Which “effect of a mutation on the interaction” value does the source give for F138S here?
Its value is “disrupting interaction strength”.

For L141P, which “effect of a mutation on the interaction” value is on record?
The value was “disrupting interaction”.

L146S was tested. Which “effect of a mutation on the interaction” value did it give?
The value was “disrupting interaction”.

Which “effect of a mutation on the interaction” value does the source give for L162P here?
Its value is “disrupting interaction”.

With A169V as the variant, how does the “effect of a mutation on the interaction” value read?
Its value is “disrupting interaction”.

How did the “effect of a mutation on the interaction” value turn out when L170P was run?
The value was “disrupting interaction”.

Which “effect of a mutation on the interaction” value does the source give for L174P here?
The value was “disrupting interaction”.

Variants of: B1
Conditions: with dnaa_helpy dnaA
Remark: another data set of the same source

For H43R, which “effect of a mutation on the interaction” value is on record?
Its value is “decreasing interaction”.

Which “effect of a mutation on the interaction” value does the source give for L51F here?
The value was “disrupting interaction strength”.

S67P was tested. Which “effect of a mutation on the interaction” value did it give?
The value was “decreasing interaction”.

Which “effect of a mutation on the interaction” value does the source give for F138S here?
Its value is “decreasing interaction”.

How did the “effect of a mutation on the interaction” value turn out when L51S was run?
The value was “disrupting interaction strength”.

How did the “effect of a mutation on the interaction” value turn out when L69P was run?
Its value is “disrupting interaction”.

With S88P as the variant, how does the “effect of a mutation on the interaction” value read?
The value was “disrupting interaction”.

For L127P, which “effect of a mutation on the interaction” value is on record?
The value was “disrupting interaction”.

Which “effect of a mutation on the interaction” value does the source give for L137P here?
Its value is “decreasing interaction”.

For F166S, which “effect of a mutation on the interaction” value is on record?
Its value is “decreasing interaction”.
